Experiments:
Test in all cases: PEPSCAN ELISA, looped 15-mer, 10 ug/ml
[1] = molecular target: looped peptide … (rabies virus strain ERA)
[2] = molecular target: looped peptide … (rabies virus strain ERA); remark: listed apart in the source
[3] = molecular target: looped peptide … (rabies virus strain ERA); remark: listed apart in the source
[4] = molecular target: looped peptide … (rabies virus strain ERA); remark: listed apart in the source
[5] = molecular target: looped peptide … (rabies virus strain ERA); remark: listed apart in the source
[6] = molecular target: looped peptide … (rabies virus strain ERA); remark: listed apart in the source
[7] = molecular target: looped peptide … (rabies virus strain ERA); remark: listed apart in the source
[8] = molecular target: looped peptide … (rabies virus strain ERA); remark: listed apart in the source
[9] = molecular target: looped peptide … (rabies virus strain ERA); remark: listed apart in the source
[10] = molecular target: looped peptide … (rabies virus strain ERA); remark: listed apart in the source
[11] = molecular target: looped peptide … (rabies virus strain ERA); remark: listed apart in the source
[12] = molecular target: looped peptide … (rabies virus strain ERA); remark: listed apart in the source
[13] = molecular target: looped peptide … (rabies virus strain ERA); remark: listed apart in the source
[14] = molecular target: looped peptide … (rabies virus strain ERA); remark: listed apart in the source
[15] = molecular target: looped peptide … (rabies virus strain ERA); remark: listed apart in the source
[16] = molecular target: looped peptide … (rabies virus strain ERA); remark: listed apart in the source
[17] = molecular target: looped peptide … (rabies virus strain ERA); remark: listed apart in the source
[18] = molecular target: looped peptide … (rabies virus strain ERA); remark: listed apart in the source
[19] = molecular target: looped peptide … (rabies virus strain ERA); remark: listed apart in the source
[20] = molecular target: looped peptide … (rabies virus strain ERA); remark: listed apart in the source
[21] = molecular target: looped peptide … (rabies virus strain ERA); remark: listed apart in the source
[22] = molecular target: looped peptide … (rabies virus strain ERA); remark: listed apart in the source
[23] = molecular target: looped peptide … (rabies virus strain ERA); remark: listed apart in the source
[24] = molecular target: looped peptide … (rabies virus strain ERA); remark: listed apart in the source
[25] = molecular target: looped peptide … (rabies virus strain ERA); remark: listed apart in the source
[26] = molecular target: looped peptide … (rabies virus strain ERA); remark: listed apart in the source
[27] = molecular target: looped peptide … (rabies virus strain ERA); remark: listed apart in the source
[28] = molecular target: looped peptide … (rabies virus strain ERA); remark: listed apart in the source
[29] = molecular target: looped peptide … (rabies virus strain ERA); remark: listed apart in the source
[30] = molecular target: looped peptide … (rabies virus strain ERA); remark: listed apart in the source
[31] = molecular target: looped peptide … (rabies virus strain ERA); remark: listed apart in the source
[32] = molecular target: looped peptide … (rabies virus strain ERA); remark: listed apart in the source
[33] = molecular target: looped peptide … (rabies virus strain ERA); remark: listed apart in the source
[34] = molecular target: looped peptide … (rabies virus strain ERA); remark: listed apart in the source
[35] = molecular target: looped peptide … (rabies virus strain ERA); remark: listed apart in the source
[36] = molecular target: looped peptide … (rabies virus strain ERA); remark: listed apart in the source
[37] = molecular target: looped peptide … (rabies virus strain ERA); remark: listed apart in the source
[38] = molecular target: looped peptide … (rabies virus strain ERA); remark: listed apart in the source
[39] = molecular target: looped peptide … (rabies virus strain ERA); remark: listed apart in the source
[40] = molecular target: looped peptide … (rabies virus strain ERA); remark: listed apart in the source
[41] = molecular target: looped peptide … (rabies virus strain ERA); remark: listed apart in the source
[42] = molecular target: looped peptide … (rabies virus strain ERA); remark: listed apart in the source
[43] = molecular target: looped peptide … (rabies virus strain ERA); remark: listed apart in the source
[44] = molecular target: looped peptide … (rabies virus strain ERA); remark: listed apart in the source
[45] = molecular target: looped peptide … (rabies virus strain ERA); remark: listed apart in the source
[46] = molecular target: looped peptide … (rabies virus strain ERA); remark: listed apart in the source
[47] = molecular target: looped peptide … (rabies virus strain ERA); remark: listed apart in the source
[48] = molecular target: looped peptide … (rabies virus strain ERA); remark: listed apart in the source
[49] = molecular target: looped peptide … (rabies virus strain ERA); remark: listed apart in the source
[50] = molecular target: looped peptide … (rabies virus strain ERA); remark: listed apart in the source
[51] = molecular target: looped peptide … (rabies virus strain ERA); remark: listed apart in the source
[52] = molecular target: looped peptide … (rabies virus strain ERA); remark: listed apart in the source
[53] = molecular target: looped peptide … (rabies virus strain ERA); remark: listed apart in the source
[54] = molecular target: looped peptide … (rabies virus strain ERA); remark: listed apart in the source
[55] = molecular target: looped peptide … (rabies virus strain ERA); remark: listed apart in the source
[56] = molecular target: looped peptide … (rabies virus strain ERA); remark: listed apart in the source
[57] = molecular target: looped peptide … (rabies virus strain ERA); remark: listed apart in the source
[58] = molecular target: looped peptide … (rabies virus strain ERA); remark: listed apart in the source
[59] = molecular target: looped peptide … (rabies virus strain ERA); remark: listed apart in the source
[60] = molecular target: looped peptide … (rabies virus strain ERA); remark: listed apart in the source
[61] = molecular target: looped peptide … (rabies virus strain ERA); remark: listed apart in the source
[62] = molecular target: looped peptide … (rabies virus strain ERA); remark: listed apart in the source
[63] = molecular target: looped peptide … (rabies virus strain ERA); remark: listed apart in the source
[64] = molecular target: looped peptide … (rabies virus strain ERA); remark: listed apart in the source
[65] = molecular target: looped peptide … (rabies virus strain ERA); remark: listed apart in the source
[66] = molecular target: looped peptide … (rabies virus strain ERA); remark: listed apart in the source
[67] = molecular target: looped peptide … (rabies virus strain ERA); remark: listed apart in the source
[68] = molecular target: looped peptide … (rabies virus strain ERA); remark: listed apart in the source
[69] = molecular target: looped peptide … (rabies virus strain ERA); remark: listed apart in the source
[70] = molecular target: looped peptide … (rabies virus strain ERA); remark: listed apart in the source
[71] = molecular target: looped peptide … (rabies virus strain ERA); remark: listed apart in the source
[72] = molecular target: looped peptide … (rabies virus strain ERA); remark: listed apart in the source
[73] = molecular target: looped peptide … (rabies virus strain ERA); remark: listed apart in the source
[74] = molecular target: looped peptide … (rabies virus strain ERA); remark: listed apart in the source
[75] = molecular target: looped peptide … (rabies virus strain ERA); remark: listed apart in the source
[76] = molecular target: looped peptide … (rabies virus strain ERA); remark: listed apart in the source
[77] = molecular target: looped peptide … (rabies virus strain ERA); remark: listed apart in the source
[78] = molecular target: looped peptide … (rabies virus strain ERA); remark: listed apart in the source
[79] = molecular target: looped peptide … (rabies virus strain ERA); remark: listed apart in the source
[80] = molecular target: looped peptide … (rabies virus strain ERA); remark: listed apart in the source
[81] = molecular target: looped peptide … (rabies virus strain ERA); remark: listed apart in the source
[82] = molecular target: looped peptide … (rabies virus strain ERA); remark: listed apart in the source
[83] = molecular target: looped peptide … (rabies virus strain ERA); remark: listed apart in the source
[84] = molecular target: looped peptide … (rabies virus strain ERA); remark: listed apart in the source
[85] = molecular target: looped peptide … (rabies virus strain ERA); remark: listed apart in the source
[86] = molecular target: looped peptide … (rabies virus strain ERA); remark: listed apart in the source
[87] = molecular target: looped peptide … (rabies virus strain ERA); remark: listed apart in the source
[88] = molecular target: looped peptide … (rabies virus strain ERA); remark: listed apart in the source
[89] = molecular target: looped peptide … (rabies virus strain ERA); remark: listed apart in the source
[90] = molecular target: looped peptide … (rabies virus strain ERA); remark: listed apart in the source
[91] = molecular target: looped peptide … (rabies virus strain ERA); remark: listed apart in the source
[92] = molecular target: looped peptide … (rabies virus strain ERA); remark: listed apart in the source
[93] = molecular target: looped peptide … (rabies virus strain ERA); remark: listed apart in the source
[94] = molecular target: looped peptide … (rabies virus strain ERA); remark: listed apart in the source
[95] = molecular target: looped peptide … (rabies virus strain ERA); remark: listed apart in the source
[96] = molecular target: looped peptide … (rabies virus strain ERA); remark: listed apart in the source
[97] = molecular target: looped peptide … (rabies virus strain ERA); remark: listed apart in the source
[98] = molecular target: looped peptide … (rabies virus strain ERA); remark: listed apart in the source

B1: human monoclonal antibody CRJA (antibody, V domains shown)
VH: EVQLLESGGGLVQPGGSLRLSCAASGFTFSNYAMSWVRQAPGKGLEWVSAISASGHSTYLADSVKGRFTISRDNSKNTLYLQMNSLRAEDTAVYYCAKDREVTMIVVLNGGFDYWGQGTRVTVSS
VL: EIVLTQSPATLSLSPGERATLACRASQTASRYLAWYQQKPGQAPRLLIYDTSNRATGIPARFSGSGSGTDFTLSISSLEPEDFAVYYCQQRFNWPWTFGQGTKVEFK
OD value [1]: 90
OD value [2]: 110
OD value [3]: 82
OD value [4]: 59
OD value [5]: 93
OD value [6]: 82
OD value [7]: 98
OD value [8]: 93
OD value [9]: 93
OD value [10]: 88
OD value [11]: 100
OD value [12]: 108
OD value [13]: 64
OD value [14]: 49
OD value [15]: 46
OD value [16]: 104
OD value [17]: 96
OD value [18]: 90
OD value [19]: 110
OD value [20]: 113
OD value [21]: 66
OD value [22]: 86
OD value [23]: 88
OD value [24]: 104
OD value [25]: 72
OD value [26]: 90
OD value [27]: 104
OD value [28]: 113
OD value [29]: 86
OD value [30]: 96
OD value [31]: 84
OD value [32]: 57
OD value [33]: 90
OD value [34]: 94
OD value [35]: 83
OD value [36]: 51
OD value [37]: 105
OD value [38]: 100
OD value [39]: 125
OD value [40]: 71
OD value [41]: 104
OD value [42]: 92
OD value [43]: 96
OD value [44]: 43
OD value [45]: 56
OD value [46]: 96
OD value [47]: 120
OD value [48]: 45
OD value [49]: 75
OD value [50]: 51
OD value [51]: 69
OD value [52]: 72
OD value [53]: 90
OD value [54]: 90
OD value [55]: 118
OD value [56]: 92
OD value [57]: 113
OD value [58]: 93
OD value [59]: 92
OD value [60]: 129
OD value [61]: 49
OD value [62]: 41
OD value [63]: 108
OD value [64]: 92
OD value [65]: 55
OD value [66]: 78
OD value [67]: 74
OD value [68]: 90
OD value [69]: 62
OD value [70]: 90
OD value [71]: 100
OD value [72]: 112
OD value [73]: 88
OD value [74]: 79
OD value [75]: 93
OD value [76]: 110
OD value [77]: 100
OD value [78]: 113
OD value [79]: 104
OD value [80]: 100
OD value [81]: 100
OD value [82]: 80
OD value [83]: 90
OD value [84]: 110
OD value [85]: 98
OD value [86]: 96
OD value [87]: 92
OD value [88]: 50
OD value [89]: 92
OD value [90]: 87
OD value [91]: 94
OD value [92]: 71
OD value [93]: 73
OD value [94]: 88
OD value [95]: 84
OD value [96]: 71
OD value [97]: 88
OD value [98]: 123
